Laboratory results from article PMC2386126, “The Mycobacterium tuberculosis Rv2540c DNA sequence encodes a bifunctional chorismate synthase” (BMC Biochemistry, 2008).

Target: the molecule itself
Assay: SEC

B1: chorismate synthase from M. tuberculosis (enzyme)
chain: MLRWITAGESHGRALVAVVEGMVAGVHVTSADIADQLARRRLGYGRGARMTFERDAVTVLSGIRHGSTLGGPIAIEIGNTEWPKWETVMAADPVDPAELADVARNAPLTRPRPGHADYAGMLKYGFDDARPVLERASARETAARVAAGTVARAFLRQALGVEVLSHVISIGASAPYEGPPPRAEDLPAIDASPVRAYDKAAEADMIAQIEAAKKDGDTLGGVVEAVALGLPVGLGSFTSGDHRLDSQLAAAVMGIQAIKGVEIGDGFQTARRRGSRAHDEMYPGPDGVVRSTNRAGGLEGGMTNGQPLRVRAAMKPISTVPRALATVDLATGDEAVAIHQRSDVCAVPAAGVVVETMVALVLARAALEKFGGDSLAETQRNIAAYQRSVADREAPAARVSG
notes: also called MtCS; CS
For B1, which “stoichiometry N” value is on record?
Its value is 2.
